Experimental data reported in publication PMC5446193.

Tests used:
TAT-Troponin [1] = test: BLI; after the dissociation phase the sensors (1000 nM analyte samples) were moved into binding buffer with 10 mM EDTA, nm shift measured for 300 s; 25°C
TAT-Troponin [2] = test: BLI

## Troponin inhibitory peptide-myoglobin
TAT-Troponin [1]
  koff (EDTA): 0.018 s⁻¹
TAT-Troponin [2]
  kon: 3700 M⁻¹ s⁻¹
